How the values were obtained:
HeLa Kyoto [1] = assay: solubility in G1/S (NP-40 vs SDS abundance) (log2 ratio); higher = more soluble; conditions: cell cycle stage: G1/S
HeLa Kyoto [2] = assay: melting temperature (median over replicates), in situ; higher = more thermally stable
HeLa Kyoto [3] = assay: solubility change mitosis vs G1/S (difference of NP-40 vs SDS log2 ratios) (log2 ratio difference); higher = more soluble in mitosis
HeLa Kyoto [4] = assay: thermal stability score vs G1/S (z-score of summed log2 fold changes over temperatures); higher = more thermally stable than in G1/S
[5] = cell cycle stage: early G1 (4.5 h after nocodazole release)
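Wherever melting temperature (median over replicates), in situ is given: HeLa Kyoto cells synchronized by double thymidine or nocodazole block, proteins quantified by TMT10plex mass spectrometry, three independent biological replicates.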
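Wherever solubility change mitosis vs G1/S (difference of NP-40 vs SDS log2 ratios) is given: synchronized HeLa Kyoto cells (double thymidine block for G1/S, nocodazole release for mitosis), protein amounts in NP-40 versus SDS lysates quantified by mass spectrometry, three biological replicates.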
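Wherever solubility in G1/S (NP-40 vs SDS abundance) is given: HeLa Kyoto cells arrested at G1/S by double thymidine block, proteins quantified by TMT10plex mass spectrometry in mild NP-40 versus SDS extracts, three biological replicates.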
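Wherever thermal stability score vs G1/S (z-score of summed log2 fold changes over temperatures) is given: synchronized HeLa Kyoto cells, proteins quantified by TMT10plex mass spectrometry, three biological replicates, mitosis taken 0.5 h after nocodazole release, G1/S directly after double thymidine block.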

| Sequence | solubility in G1/S (log2) (HeLa Kyoto [1]) | melting temperature (HeLa Kyoto [2]; cell cycle stage: G1/S) [°C] | melting temperature (HeLa Kyoto [2]; cell cycle stage: mitosis) [°C] | solubility change mitosis (log2) (HeLa Kyoto [3]) | thermal stability score (HeLa Kyoto [4]; [5]) | thermal stability score (HeLa Kyoto [4]; cell cycle stage: mitosis) |
| --- | --- | --- | --- | --- | --- | --- |
| MMSLSVRPQRRLLSARVNRSQSFAGVLGSHERGPSLSFRSFPVFSPPGPPRKPPALSRVSRMFSVAHPAAKVPQPERLDLVYTALKRGLTAYLEVHQQEQEKLQGQIRESKRNSRLGFLYDLDKQVKSIERFLRRLEFHASKIDELYEAYCVQRRLRDGAYNMVRAYTTGSPGSREARDSLAEATRGHREYTESMCLLESELEAQLGEFHLRMKGLAGFARLCVGDQYEICMKYGRQRWKLRGRIEGSGKQVWDSEETIFLPLLTEFLSIKVTELKGLANHVVVGSVSCETKDLFAALPQVVAVDINDLGTIKLSLEVTWSPFDKDDQPSAASSVNKASTVTKRFSTYSQSPPDTPSLREQAFYNMLRRQEELENGTAWSLSSESSDDSSSPQLSGTARHSPAPRPLVQQPEPLPIQVAFRRPETPSSGPLDEEGAVAPVLANGHAPYSRTLSHISEASVDAALAEASVEAVGPESLAWGPSPPTHPAPTHGEHPSPVPPALDPGHSATSSTLGTTGSVPTSTDPAPSAHLDSVHKSTDSGPSELPGPTHTTTGSTYSAITTTHSAPSPLTHTTTGSTHKPIISTLTTTGPTLNIIGPVQTTTSPTHTMPSPTHTTASPTHTSTSPTHTPTSPTHKTSMSPPTTTSPTPSGMGLVQTATSPTHPTTSPTHPTTSPILINVSPSTSLELATLSSPSKHSDPTLPGTDSLPCSPPVSNSYTQADPMAPRTPHPSPAHSSRKPLTSPAPDPSESTVQSLSPTPSPPTPAPQHSDLCLAMAVQTPVPTAAGGSGDRSLEEALGALMAALDDYRGQFPELQGLEQEVTRLESLLMQRQGLTRSRASSLSITVEHALESFSFLNEDEDEDNDVPGDRPPSSPEAGAEDSIDSPSARPLSTGCPALDAALVRHLYHCSRLLLKLGTFGPLRCQEAWALERLLREARVLEAVCEFSRRWEIPASSAQEVVQFSASRPGFLTFWDQCTERLSCFLCPVERVLLTFCNQYGARLSLRQPGLAEAVCVKFLEDALGQKLPRRPQPGPGEQLTVFQFWSFVETLDSPTMEAYVTETAEEVLLVRNLNSDDQAVVLKALRLAPEGRLRRDGLRALSSLLVHGNNKVMAAVSTQLRSLSLGPTFRERALLCFLDQLEDEDVQTRVAGCLALGCIKAPEGIEPLVYLCQTDTEAVREAARQSLQQCGEEGQSAHRRLEESLDALPRIFGPGSMASTAF [FAM65A] | 0.0594 | 50.1 | 49.7 | -0.096 | 0.236 | 1.49 |
| MNAARTGYRVFSANSTAACTELAKRITERLGAELGKSVVYQETNGETRVEIKESVRGQDIFIIQTIPRDVNTAVMELLIMAYALKTACARNIIGVIPYFPYSKQSKMRKRGSIVCKLLASMLAKAGLTHIITMDLHQKEIQGFFSFPVDNLRASPFLLQYIQEEIPNYRNAVIVAKSPDAAKRAQSYAERLRLGLAVIHGEAQCTELDMDDGRHSPPMVKNATVHPGLELPLMMAKEKPPITVVGDVGGRIAIIVDDIIDDVESFVAAAEILKERGAYKIYVMATHGILSAEAPRLIEESSVDEVVVTNTVPHEVQKLQCPKIKTVDISLILSEAIRRIHNGESMAYLFRNITVDD [PRPSAP1] | 0.0529 | 55.6 | 54.6 | -0.211 | -0.299 | -2.79 |
| MNFAEREGSKRYCIQTKHVAILCAVVVGVGLIVGLAVGLTRSCDSSGDGGPGTAPAPSHLPSSTASPSGPPAQDQDICPASEDESGQWKNFRLPDFVNPVHYDLHVKPLLEEDTYTGTVSISINLSAPTRYLWLHLRETRITRLPELKRPSGDQVQVRRCFEYKKQEYVVVEAEEELTPSSGDGLYLLTMEFAGWLNGSLVGFYRTTYTENGQVKSIVATDHEPTDARKSFPCFDEPNKKATYTISITHPKEYGALSNMPVAKEESVDDKWTRTTFEKSVPMSTYLVCFAVHQFDSVKRISNSGKPLTIYVQPEQKHTAEYAANITKSVFDYFEEYFAMNYSLPKLDKIAIPDFGTGAMENWGLITYRETNLLYDPKESASSNQQRVATVVAHELVHQWFGNIVTMDWWEDLWLNEGFASFFEFLGVNHAETDWQMRDQMLLEDVLPVQEDDSLMSSHPIIVTVTTPDEITSVFDGISYSKGSSILRMLEDWIKPENFQKGCQMYLEKYQFKNAKTSDFWAALEEASRLPVKEVMDTWTRQMGYPVLNVNGVKNITQKRFLLDPRANPSQPPSDLGYTWNIPVKWTEDNITSSVLFNRSEKEGITLNSSNPSGNAFLKINPDHIGFYRVNYEVATWDSIATALSLNHKTFSSADRASLIDDAFALARAQLLDYKVALNLTKYLKREENFLPWQRVISAVTYIISMFEDDKELYPMIEEYFQGQVKPIADSLGWNDAGDHVTKLLRSSVLGFACKMGDREALNNASSLFEQWLNGTVSLPVNLRLLVYRYGMQNSGNEISWNYTLEQYQKTSLAQEKEKLLYGLASVKNVTLLSRYLDLLKDTNLIKTQDVFTVIRYISYNSYGKNMAWNWIQLNWDYLVNRYTLNNRNLGRIVTIAEPFNTELQLWQMESFFAKYPQAGAGEKPREQVLETVKNNIEWLKQHRNTIREWFFNLLESG [ENPEP] | -0.159 | 57.4 | 55.9 | 0.193 | -1.64 | -0.842 |
| MNGDSRAAVVTSPPPTTAPHKERYFDRVDENNPEYLRERNMAPDLRQDFNMMEQKKRVSMILQSPAFCEELESMIQEQFKKGKNPTGLLALQQIADFMTTNVPNVYPAAPQGGMAALNMSLGMVTPVNDLRGSDSIAYDKGEKLLRCKLAAFYRLADLFGWSQLIYNHITTRVNSEQEHFLIVPFGLLYSEVTASSLVKINLQGDIVDRGSTNLGVNQAGFTLHSAIYAARPDVKCVVHIHTPAGAAVSAMKCGLLPISPEALSLGEVAYHDYHGILVDEEEKVLIQKNLGPKSKVLILRNHGLVSVGESVEEAFYYIHNLVVACEIQVRTLASAGGPDNLVLLNPEKYKAKSRSPGSPVGEGTGSPPKWQIGEQEFEALMRMLDNLGYRTGYPYRYPALREKSKKYSDVEVPASVTGYSFASDGDSGTCSPLRHSFQKQQREKTRWLNSGRGDEASEEGQNGSSPKSKTKWTKEDGHRTSTSAVPNLFVPLNTNPKEVQEMRNKIREQNLQDIKTAGPQSQVLCGVVMDRSLVQGELVTASKAIIEKEYQPHVIVSTTGPNPFTTLTDRELEEYRREVERKQKGSEENLDEAREQKEKSPPDQPAVPHPPPSTPIKLEEDLVPEPTTGDDSDAATFKPTLPDLSPDEPSEALGFPMLEKEEEAHRPPSPTEAPTEASPEPAPDPAPVAEEAAPSAVEEGAAADPGSDGSPGKSPSKKKKKFRTPSFLKKSKKKSDS [ADD1] | 0.119 | 55.2 | 55.1 | 0.0666 | -4.45 | -3.29 |
